28 molecules from patent US20070202045A1 (published 2007) can be followed below.

Experiment [1] has as its target T1, rabbit albumin (rabbit, UniProt P49065 25-608).
T1 construct: bought (Sigma); also called rabbit SA; BuSA
As to the kind of experiment: SA08b competition ELISA. In general terms: In an ELISA, binding on a coated surface is turned into a signal by an enzyme label.

Experiment [2] concerns the target T1, rabbit albumin. In words: SA08b competition ELISA. This is another data set of the same source.
The target of experiment [3] is T1, rabbit albumin. In words: SA08b competition ELISA. This is another data set of the same source.
The target in experiment [4] is T2, rat albumin (rat, UniProt P02770 25-608).
T2 construct: bought (Sigma); also called rat SA; RSA
As to the kind of experiment: SA08b competition ELISA.

In experiment [5] the target is T3, mouse albumin (mouse, UniProt P07724 25-608).
T3 construct: bought (Sigma); also called MSA; MuSA
In words: SA08b competition ELISA.

Experiment [6] addresses T1, rabbit albumin. In words: SPR (BIAcore), albumin immobilized. An excerpt: (§1) Binding affinities between SA peptides and album were obtained using a BIAcore 3000 (BIAcore, Inc., Piscataway, N.J.). Albumin was captured in a CM5 chip using amine coupling at approximately 5000 resonance units (RU).
(§2) The signal from an injection passing over an uncoupled cell was subtracted from that of an immobilized cell to generate sensongrams corresponding to the amount of peptide bound as a function of time. The running buffer, PBS containing 0.05% TWEEN-20T, was used for all sample dilutions. BIAcore kinetic evaluation software (v 3.1) was used to determine the dissociation constant (Kd) from the association and dissociation rates, using a one to one binding model.

Experiment [7] has as its target T1, rabbit albumin. As to the kind of experiment: SA08b peptide competition ELISA.
Experiment [8] deals with T3, mouse albumin. As to the kind of experiment: SA08b peptide competition ELISA.
For experiment [9], the target named is T4, human albumin (human, UniProt P02768 25-609).
T4 construct: bought (Sigma); also called human SA; HuSA
As to the kind of experiment: SPR (BIAcore), albumin immobilized.
From the text: as §1, §2
(In SPR one partner is held on a chip, and binding of the other changes the refractive index at the surface.)

For experiment [10], the target named is T2, rat albumin. As to the kind of experiment: SPR (BIAcore), albumin immobilized.
From the text: as §1, §2

Experiment [11] addresses T2, rat albumin. As to the kind of experiment: phage ELISA.
Experiment [12] has as its target T1, rabbit albumin. In words: SA08b competition ELISA. This is another data set of the same source.
In experiment [13] the target is T2, rat albumin. In words: SA08b competition ELISA. The source holds these as a separate data set.
Experiment [14] concerns the target T3, mouse albumin. As to the kind of experiment: SA08b competition ELISA. The source holds these as a separate data set.

Broadly, the IC50 is the midpoint of a concentration-inhibition curve. A word on the Kd: it is the equilibrium constant for the complex coming apart. The low end stands for higher affinity, the high end for lower affinity.

Read-outs that look alike come from different tables or passages of the source. Bridges are numbered along the chain shown (N, C = ends). Where no end group is shown, it is not given here.

T2 sequence (P02770 25-608 limits assumed): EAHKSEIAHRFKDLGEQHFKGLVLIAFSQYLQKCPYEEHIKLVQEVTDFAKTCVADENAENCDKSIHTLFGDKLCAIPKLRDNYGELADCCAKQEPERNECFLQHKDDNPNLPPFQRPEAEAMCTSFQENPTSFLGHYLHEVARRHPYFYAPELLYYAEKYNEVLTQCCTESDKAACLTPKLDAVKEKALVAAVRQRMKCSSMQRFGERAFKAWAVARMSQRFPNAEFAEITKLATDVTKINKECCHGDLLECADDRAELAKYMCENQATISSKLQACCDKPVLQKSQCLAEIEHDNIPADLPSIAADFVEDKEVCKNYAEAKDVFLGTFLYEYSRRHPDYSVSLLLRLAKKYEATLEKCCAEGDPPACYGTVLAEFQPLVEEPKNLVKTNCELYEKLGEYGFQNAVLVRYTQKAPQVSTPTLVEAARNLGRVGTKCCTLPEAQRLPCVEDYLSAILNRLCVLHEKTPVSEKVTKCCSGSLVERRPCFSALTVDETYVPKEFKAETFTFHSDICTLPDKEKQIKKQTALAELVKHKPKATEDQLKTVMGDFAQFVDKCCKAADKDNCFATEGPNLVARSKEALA
T3 sequence (P07724 25-608 limits assumed): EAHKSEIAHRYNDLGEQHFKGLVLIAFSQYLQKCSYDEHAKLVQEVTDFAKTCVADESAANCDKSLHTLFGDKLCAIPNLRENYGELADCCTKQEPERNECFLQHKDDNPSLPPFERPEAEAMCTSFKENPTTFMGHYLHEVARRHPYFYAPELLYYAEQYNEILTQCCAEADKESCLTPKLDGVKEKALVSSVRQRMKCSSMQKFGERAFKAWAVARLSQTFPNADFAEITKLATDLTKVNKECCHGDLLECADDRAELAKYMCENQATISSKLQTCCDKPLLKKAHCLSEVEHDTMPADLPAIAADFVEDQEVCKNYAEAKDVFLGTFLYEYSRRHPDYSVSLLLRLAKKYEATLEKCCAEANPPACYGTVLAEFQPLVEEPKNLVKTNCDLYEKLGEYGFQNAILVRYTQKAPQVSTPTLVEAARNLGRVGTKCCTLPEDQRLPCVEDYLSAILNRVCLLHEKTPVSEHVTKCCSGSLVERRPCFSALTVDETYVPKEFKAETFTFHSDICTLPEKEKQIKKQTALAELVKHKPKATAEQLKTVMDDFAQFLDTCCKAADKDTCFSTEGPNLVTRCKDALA
T1 sequence (P49065 25-608 limits assumed): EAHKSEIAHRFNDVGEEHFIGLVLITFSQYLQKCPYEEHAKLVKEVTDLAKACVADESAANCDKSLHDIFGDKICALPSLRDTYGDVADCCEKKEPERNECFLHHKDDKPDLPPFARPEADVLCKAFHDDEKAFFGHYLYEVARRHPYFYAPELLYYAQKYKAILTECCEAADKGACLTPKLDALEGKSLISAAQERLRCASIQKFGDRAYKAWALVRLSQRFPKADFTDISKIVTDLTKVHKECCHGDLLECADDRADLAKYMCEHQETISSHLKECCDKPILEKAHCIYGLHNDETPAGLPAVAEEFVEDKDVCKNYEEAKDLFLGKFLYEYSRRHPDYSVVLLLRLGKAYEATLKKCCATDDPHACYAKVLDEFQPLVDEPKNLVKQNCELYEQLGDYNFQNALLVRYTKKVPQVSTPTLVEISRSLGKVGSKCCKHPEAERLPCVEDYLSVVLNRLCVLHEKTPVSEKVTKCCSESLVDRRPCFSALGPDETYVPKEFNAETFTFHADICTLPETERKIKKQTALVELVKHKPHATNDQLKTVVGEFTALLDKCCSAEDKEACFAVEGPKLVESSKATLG

Consider Ac-EDICLPRWGCLW-NH2 (disulfide 4-10 (inferred), synthetic) [SA32], for which, in [1], the IC50 was 2170 nM.

For Ac-EDICLPRWGCLWED-NH2 (disulfide 4-10 (inferred), synthetic) [SA25], the IC50 in [1] is 2730 nM.

Regarding Ac-RLIEDICLPRWGCLWED-NH2 (disulfide 7-13 (inferred), synthetic) [SA22], the 50% inhibitory concentration (IC50) in experiment [1] amounted to 430 nM. For the same molecule, the “fold improvement of IC50 over the core sequence (SA34 and SA19)” value (from here on “fold improvement of IC50”) in [2] is 60 fold.

For the molecule MEDICLPRWGCLWED-NH2 (disulfide 5-11 (inferred), synthetic; disulfide oxidised) [SA05], the half-maximal inhibitory concentration (IC50) in experiment [3] is 804 nM; in experiment [4], 161 nM; in [5], 6 nM.

In turn, Ac-IEDICLPRWGCLWED-NH2 (disulfide 5-11 (inferred), synthetic) [SA24] displayed a concentration for half-maximal inhibition (IC50) in experiment [1] of 1380 nM.

B1: SA07 (peptide)
peptide: QGLIGDICLPRWGCLWGDSV-NH2
modifications: disulfide 8-14 (inferred)
notes: synthetic; disulfide oxidised; printed ...GDSV here
With B1, the results for the IC50 in [3], in experiment [4] and in experiment [5] were 30 nM, 35 nM and 6 nM, respectively.

Regarding Ac-RLMEDICLPRWGCLWEDD-NH2 (disulfide 7-13 (inferred), synthetic; disulfide oxidised) [SA10], the IC50 is 86 nM in experiment [3] and 77 nM in experiment [4].

For Ac-RLIEDICLPRWGCLWEDD-NH2 (disulfide 7-13 (inferred), synthetic; disulfide oxidised) [SA21], the IC50 in [1] was found to be 270 nM; in experiment [7], 270 nM; in experiment [8], 7 nM. The same molecule displayed a dissociation constant Kd in experiment [6] of 320 nM.

In the case of Ac-RLMEDICLARWGCLWEDD-NH2 (disulfide 7-13 (inferred), synthetic; disulfide oxidised) [SA13], the IC50 in experiment [3] turned out to be 3200 nM; in experiment [4], 2480 nM; in [5], 188 nM.

Molecule ICLPRWGCLW-NH2 (disulfide 2-8 (inferred), synthetic) [SA18] registered an IC50 in experiment [1] of 125000 nM.

With Ac-ICLPRWGCLWED-NH2 (disulfide 2-8 (inferred), synthetic) [SA27], the IC50 in experiment [1] was determined as 86700 nM.

For Ac-RLIEDICLPRWGCL-NH2 (disulfide 7-13 (inferred), synthetic) [SA33], in experiment [1], the IC50 amounted to 4310 nM. For the same molecule, the “fold improvement of IC50” value in experiment [2] was roughly 6 fold.

Consider DICLPRWGCL-NH2 (disulfide 3-9 (inferred), synthetic) [SA19], for which the concentration for half-maximal inhibition (IC50) in experiment [1] was found to be 24500 nM.

As for GEWWEDICLPRWGCLWEEED-NH2 (disulfide 8-14 (inferred), synthetic) [SA15], the dissociation constant Kd in experiment [9] turned out to be 878 nM; in experiment [6] it was 65 nM; in [10], 150 nM. Also, the half-maximal inhibitory concentration (IC50) amounted to 13 nM in experiment [7] and 5 nM in [8].

On to Ac-QGLIGDICLPRWGCLWGDSVK-NH2 (disulfide 8-14 (inferred), synthetic; disulfide oxidised) [SA08], for which the Kd in [9] came out at 858 nM; in experiment [6], 108 nM; in experiment [10], 158 nM. The IC50 came out at 12 nM in experiment [8], 63 nM in [3], 68 nM in experiment [4] and 10 nM in experiment [5].

In the case of Ac-EDICLPRWGCLWEDD-NH2 (disulfide 4-10 (inferred), synthetic; disulfide oxidised) [SA09], the half-maximal inhibitory concentration (IC50) in experiment [3] is 1690 nM; in experiment [4] it was 258 nM; in [5], 6 nM.

Ac-RLIEDICLPRWGCLWE-NH2 (disulfide 7-13 (inferred), synthetic) [SA29] gave an IC50 in experiment [1] of 400 nM.

For Ac-LIEDICLPRWGCLWED-NH2 (disulfide 6-12 (inferred), synthetic) [SA23], in [1], the IC50 worked out at 360 nM.

In [1], Ac-DICLPRWGCLWED-NH2 (disulfide 3-9 (inferred), synthetic) [SA26] registered an IC50 of 3120 nM. Further, the “fold improvement of IC50” value in experiment [2] is roughly 8.6 fold.

In experiment [1], Ac-QRLIEDICLPRWGCLWEDDF-NH2 (disulfide 8-14 (inferred), synthetic) [SA20] returned an IC50 of 260 nM. This lies in the sub-micromolar range.

Take DLCLRDWGCLW (not fully specified (C-terminus); cysteine pairing not given here) [RC]: in [11], the binding result is reported as “binds”.

As to DICLPRWGCLW-NH2 (disulfide 3-9 (inferred), synthetic; disulfide oxidised) [SA04], the IC50 was 8540 nM in experiment [1], 8540 nM in experiment [3], 787 nM in experiment [4] and 40 nM in experiment [5].

Ac-MEDICLPRWGCLWED-NH2 (disulfide 5-11 (inferred), synthetic; disulfide oxidised) [SA12]: the IC50 in [3] came to 1760 nM; in experiment [4], 205 nM; in experiment [5], 13 nM.

Turning to Ac-DICLPRWGCL-NH2 (disulfide 3-9 (inferred), synthetic) [SA34], in [1], the IC50 worked out at 28200 nM.

As for Ac-MEDICLPRWGCLWEDD-NH2 (disulfide 5-11 (inferred), synthetic; disulfide oxidised) [SA11], the values for the IC50 in [3], in experiment [4] and in [5] were 1210 nM, 232 nM and 17 nM, respectively.

Ac-IEDICLPRWGCLWE-NH2 (disulfide 5-11 (inferred), synthetic) [SA30]: the IC50 in experiment [1] worked out at 1800 nM. This lies in the single-digit micromolar range.

For QRLMEDICLPRWGCLWEDDF-NH2 (disulfide 8-14, synthetic; disulfide oxidised) [SA06], the Kd was 143 nM in experiment [6] and 229 nM in experiment [10]. For the same molecule, the half-maximal inhibitory concentration (IC50) in [7] turned out to be 130 nM; in experiment [8] it was 6 nM; in [3], 128 nM; in experiment [4], 68 nM; in experiment [5] it was 8 nM; in experiment [12], 128 nM. Further, the figures for the IC50 in experiment [13] and in experiment [14] were 68 nM and 8 nM, respectively.

For Ac-RLIEDICLPRWGCLW-NH2 (disulfide 7-13 (inferred), synthetic) [SA31], in experiment [1], the IC50 came out at 200 nM.
